# Measured values reported in paper PMC5104691, “Crystal Structure of the Neuropilin-1 MAM Domain: Completing the Neuropilin-1 Ectodomain Picture” (Structure(London, England:1993), 2016).
# Biological target: the molecule itself
# Experiment: ITC; dissociation by dilution: 900 μM MAM domain in the syringe titrated into buffer (20 mM Tris pH 8.0, 100 mM NaCl), one 0.4 μL and 19 injections of 2 μL, at 15°C and 20°C; dimer or oligomer to monomers
protein,measurement,value
"MAM domain of human neuropilin-1 (residues 628-813), wild-type glycosylated (domain or fragment, UniProt O14786 628-813, looked up, glycosylated at serine and threonine residues upstream of the predicted MAM domain (O-linked glycosylation sites), Neuropilin-1 (NRP1), human, amino acid residues 628-813 (linker region and MAM/c domain); also called NRP1 MAM domain; NRP1 MAM; source: FreeStyle HEK293-F cells, transfected, secreted) ATEKPTVIDSTIQSEFPTYGFNCEFGWGSHKTFCHWEHDNHVQLKWSVLTSKTGPIQDHTGDGNFIYSQADENQKGKVARLVSPVVYSQNSAHCMTFWYHMSGSHVGTLRVKLRYQKPEEYDQLVWMAIGHQGDHWKEGRVLLHKSLKLYQVIFEGEIGKGNLGGIAVDDISINNHISQEDCAKPA",Kd,> 900 µM
